The assay has as its target DR1: DRA*0101(1–191)/DRB1*0101(1–198) (human).

Usually IC50 stands for the point on the concentration scale where inhibition reaches its midpoint. Low values mean inhibition by little substance, high ones a need for much substance. The molecule LPKPPKPVSKMRMATPLLMQALPM [CLIP peptide fragment of the invariant chain (positions 97–120)] yielded an IC50 of 40 nM.

B1: C-terminal fragment of the invariant chain (positions 118–208), devoid of CLIP (domain or fragment)
chain: LPMGALPQGPMQNATKYGNMTEDHVMHLLQNADPLKVYPPLKGSFPENLRHLKNTMETIDWKVFESWMHHWLLFEMSRHSLEQKPTDAPPK
B1 yielded an IC50 of 1700 nM.

B2: recombinant extracellular part of human invariant chain (positions 73–208) (domain or fragment)
chain: QQQGRLDKLTVTSQNLQLENLRMKLPKPPKPVSKMRMATPLLMQALPMGALPQGPMQNATKYGNMTEDHVMHLLQNADPLKVYPPLKGSFPENLRHLKNTMETIDWKVFESWMHHWLLFEMSRHSLEQKPTDAPPK
As for B2, 40 nM corresponded to half-maximal inhibition (IC50).

In the case of PKYVKQNTLKLAT [influenza hemagglutinin peptide HA306–318], the IC50 amounted to 34 nM.

The values above are taken from paper PMC2690590 (2009).
